Like-named read-outs stand apart in the source and are kept apart here. Square brackets hold non-standard residues; d marks the D form. Ends that are not written are not given here.
Target: tetrameric transthyretin (TTR) (Homo sapiens, UniProt P02766)
Assay: In-solution kinetics analysis of TTR-Aβ interactions via OpenSPR
Type: binding
Conditions: for koff: dissociation rate constant
Procedure: One of the most common applications of SPR is the analysis and quantification of the interactions between proteins. SPR experiments were performed using a Nicoya Lifesciences OpenSPR system equipped with a COOH chip. Following the start-up procedure found in the OpenSPR™ manual, setup the OpenSPR™ instrument and load a COOH Sensor Chip. The COOH surface was activated following the instructions included in the Amine kit. The ligand was diluted to a concentration of 45 μg/mL into immobilization buffer (provided by Nicoya Lifesciences, pH 4.5) and 100 μL was injected at 20 μL/min for a 5-min interaction time. […] Immobilization was monitored via absorbance change in a standard solution of filtered buffer (PBS, pH 6.8, with 0.005% Tween 20) for 5 min at a flow rate of 50 μl/min. The surface was blocked with an injection of 100 μL of blocking buffer (provided by Nicoya Lifesciences, 1 M ethanolamine, pH 8.5). […] An association time of 150 s and a dislocation time of 400 s were used. The surface was regenerated with an injection of regeneration buffer (HCl 10 mM, pH 2.0) at a speed of 150 μL/min between each analyte injection. The chip was washed in 10 mM HCl (pH 2.0) to remove impurities. Data were collected at a rate of 5 Hz and was single referenced with blank injections. Data were fit to a 1:1 interaction model using the analysis software TraceDrawer.

[1] = OpenSPR, Replicate #1, read-out: ka
[2] = OpenSPR, Replicate #2, read-out: ka
[3] = OpenSPR, Replicate #3, read-out: ka
[4] = pH 6.8, OpenSPR, association rate constant, immobilized TTR, PBS pH 6.8, 0.005% Tween 20, 1:1 model, average of three ± SD, read-out: Ka (1/(M*s)) × 10^−2
[5] = OpenSPR, association rate constant, immobilized TTR, PBS pH 6.8, 0.005% Tween 20, 1:1 model, average of three ± SD
[6] = OpenSPR, immobilized TTR, PBS pH 6.8, 0.005% Tween 20, 1:1 model, average of three ± SD

Compound	kon [1]	kon [2]	kon [3]	kon [4]	binding dissociation rate constant higher than the WT Aβ (17–36) fragment (OpenSPR, tetrameric TTR, relative to WT Aβ (17–36))	Kd (OpenSPR, Replicate #1)	ka (OpenSPR, Replicate #1)	kd (OpenSPR, Replicate #1)	Kd (OpenSPR, Replicate #2)	ka (OpenSPR, Replicate #2)	kd (OpenSPR, Replicate #2)	Kd (OpenSPR, Replicate #3)	ka (OpenSPR, Replicate #3)	kd (OpenSPR, Replicate #3)	Ka (1/(M*s)) × 10^−2 [5]	koff [6]
CC[C@H](C)[C@H](NC(=O)[C@H](C)NC(=O)CNC(=O)[C@H](CCCCN)NC(=O)[C@H](CC(N)=O)NC(=O)[C@H](CO)NC(=O)CNC(=O)[C@@H](NC(=O)[C@H](CC(=O)O)NC(=O)[C@H](CCC(=O)O)NC(=O)[C@H](C)NC(=O)[C@H](Cc1ccccc1)NC(=O)[C@H](Cc1ccccc1)NC(=O)[C@@H](NC(=O)[C@@H](N)CC(C)C)C(C)C)C(C)C)C(=O)N[C@H](C(=O)NCC(=O)N[C@@H](CC(C)C)C(=O)N[C@@H](CCSC)C(=O)N[C@H](C(=O)O)C(C)C)[C@@H](C)CC [WT Aβ (17–36)]	886 M⁻¹ s⁻¹	586 M⁻¹ s⁻¹	603 M⁻¹ s⁻¹	690 ± 80 M⁻¹ s⁻¹												
CC[C@H](C)[C@H](NC(=O)[C@H](C)NC(=O)CNC(=O)[C@H](CCCCN)NC(=O)[C@H](CC(N)=O)NC(=O)[C@@H](CO)NC(=O)CNC(=O)[C@@H](NC(=O)[C@@H](CC(=O)O)NC(=O)[C@H](CCC(=O)O)NC(=O)[C@H](C)NC(=O)[C@H](Cc1ccccc1)NC(=O)[C@H](Cc1ccccc1)NC(=O)[C@@H](NC(=O)[C@@H](N)CC(C)C)C(C)C)C(C)C)C(=O)N[C@H](C(=O)NCC(=O)N[C@@H](CC(C)C)C(=O)N[C@@H](CCSC)C(=O)N[C@H](C(=O)O)C(C)C)[C@@H](C)CC [dDdS Aβ (17–36)]	3490 M⁻¹ s⁻¹	818 M⁻¹ s⁻¹	1470 M⁻¹ s⁻¹	1930 ± 700 M⁻¹ s⁻¹	~ 13 folds											
dD Aβ (17–36): Aβ (17–36) with D-isomerized Asp (LVFFAE[dD]VGSNKGAIIGLMV)						116 µM	1720 M⁻¹ s⁻¹	0.199 s⁻¹	199 µM	489 M⁻¹ s⁻¹	0.0975 s⁻¹	133 µM	753 M⁻¹ s⁻¹	0.1 s⁻¹	9.9 ± 3.2 1/(M*s) × 10^−2	13.2 ± 2.9 1/s × 10^2
dS Aβ (17–36): Aβ (17–36) with D-isomerized Ser (LVFFAEDVG[dS]NKGAIIGLMV)						86.9 µM	1660 M⁻¹ s⁻¹	0.144 s⁻¹	220 µM	657 M⁻¹ s⁻¹	0.144 s⁻¹	47.3 µM	1150 M⁻¹ s⁻¹	0.0546 s⁻¹	11.6 ± 2.5 1/(M*s) × 10^−2	11.4 ± 2.6 1/s × 10^2
